# Results: US20080219983A1 (TRIMESTER CUSHION, published 2008)
# T1: Plasma-derived FVIII light chain (UniProt P00451 1668-2351)
# T1 construct: domain: light chain (a3-A3-C1-C2); Prepared from plasma as in the cited literature; Human by context (the peptides are said to cover human FVIII regions); Residue numbers count on mature FVIII, without the signal peptide; also called LCh; 80-kDa light chain (a3-A3-C1-C2)
# T1 sequence (looked up): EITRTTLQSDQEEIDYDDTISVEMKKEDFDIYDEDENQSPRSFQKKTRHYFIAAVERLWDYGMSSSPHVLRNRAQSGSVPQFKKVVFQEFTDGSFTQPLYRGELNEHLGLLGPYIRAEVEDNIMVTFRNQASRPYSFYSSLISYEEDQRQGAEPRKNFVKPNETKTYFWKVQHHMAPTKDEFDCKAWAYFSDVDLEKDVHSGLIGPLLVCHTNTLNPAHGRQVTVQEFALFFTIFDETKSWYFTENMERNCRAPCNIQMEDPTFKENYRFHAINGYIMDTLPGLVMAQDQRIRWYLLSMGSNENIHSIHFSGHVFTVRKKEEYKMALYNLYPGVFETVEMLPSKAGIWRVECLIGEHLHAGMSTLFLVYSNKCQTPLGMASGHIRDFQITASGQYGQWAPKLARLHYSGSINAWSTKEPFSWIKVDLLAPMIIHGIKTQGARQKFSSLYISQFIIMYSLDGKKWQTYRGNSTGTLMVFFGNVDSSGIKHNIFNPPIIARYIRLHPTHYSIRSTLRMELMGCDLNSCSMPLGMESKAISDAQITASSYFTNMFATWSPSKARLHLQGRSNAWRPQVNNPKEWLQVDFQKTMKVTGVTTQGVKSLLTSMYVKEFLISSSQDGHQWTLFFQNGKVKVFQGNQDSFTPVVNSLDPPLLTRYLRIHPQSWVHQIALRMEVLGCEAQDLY
# B1: scFv KM33 (scFv)
# scFv: EVQLVESGGGVVQPGRSLRLSCVDSGLTFSSYGMHWVRQAPGAGLEWVAVISYDGNDKYYADSVKGRFAISRDNAKNTLYLQMNSLTIEDTAVYYCAKDLIESNIAEAFWGQGTLVTVSSGGGGSGGGGSGGGGSDIQMTQSPSSLSASVGDTVTIACRASRDIRNDLAWYQQKPGKAPKLLIYATSRLQSGVPSRFSGSGSFTDFTLTINSLQPDDSATYYCLQDSDYPLTFGGGTKVDIKRAAAEQKLISEEDLNGAAHHHHHH
# notes: Expressed in E. coli TG1
# How the values were obtained:
# [1] = biological target: T1, Plasma-derived FVIII light chain; assay: solid-phase competition: scFv KM33 (0-30 nM) against FVIII light chain (25 nM) binding to immobilised LRP cluster II (FIG. 5)
# Description: (§1) FIG. 5. […] Data represent the mean ±S.D. of three experiments.
# (§2) Solid-phase Binding Assays—Recombinant LRP clusters II or IV (1 pmol/well) were adsorbed onto microtiter wells in 50 mM NaHCO₃ (pH 9.8) in a volume of 50 μl for 16 h at 4° C. Wells were blocked with 2% (w/v) HSA, 150 mM NaCl, 5 mM CaCl₂, and 50 mM Tris (pH 7.4) in a volume of 200 μl for 1 h at 37° C. […] Bound ligand was detected by incubating with peroxidase-conjugated monoclonal antibody CLB-CAg 12 in the same buffer for 15 min at 37° C. […] Residual FVIII binding was detected as described above.
# [2] = biological target: T1, Plasma-derived FVIII light chain; assay: solid-phase competition assay: FVIII light chain (25 nM) on immobilised LRP cluster II (1 pmol/well) in the presence of scFv KM33 (0-30 nM); detection with peroxidase-conjugated CLB-CAg 12
# Description: as §1, §2
binder,measurement,setting,value
B1,Ki,[1],~5 nM
same,IC50 (read off the curve),[2],~7 nM
